In patent US7485710B2, “Nucleic acids coding for adhesion factor of group B streptococcus, adhesion factors of group B streptococcus and further uses thereof” (priority 2002, dated 2009):

How the values were obtained:
human fibrinogen [1] = target: T1, human fibrinogen (Homo sapiens, UniProt P02671+P02675+P02679); assay: Spot membrane analysis of fibrinogen binding by synthetic peptides; conditions: peptides derived from FbsA repeat GNVLERRQRDAENRSQ
T1 construct: purchased Sigma-Aldrich
Procedure: Fibrinogen binding was tested with peptides carrying the FbsA repeat motif ‘GNVLERRQRDAENRSQ’ (SEQ ID 113) and with peptides containing the scrambled sequence ‘GLSQNRDVRENQRARE’. (SEQ ID 205) Synthetic peptides, which differed from the repeat motif in that single amino acids had been replaced by alanine, were probed for fibrinogen binding. Beside the spot membrane, the sequence of each synthetic peptide is listed. Bold and underlined letters indicate amino acid substitutions within the repeat motif.
Synthetic peptides were tested for fibrinogen binding, in which each of the amino acids of the fibrinogen-binding repeat was replaced by each of the 20 amino acids. The vertical letters, printed in bold, represent the FbsA-derived fibrinogen binding sequence ‘GNVLERRQRDAENRSQ’ (SEQ ID NO: 113). The horizontal letters represent those amino acids that were introduced in the synthetic peptides instead of the original amino acid in the respective position.
In Western blot experiments proteins were separated by SDS-PAGE and electroblotted onto nitrocellulose. […] For spot membrane experiments peptides of 16 amino acids were synthesized and equal amounts of the peptides were directly spotted onto cellulose paper as described previously (Frank and Overwin, 1996). Blocking was performed in membrane blocking solution (MBS) that consisted of 20 ml casein based blocking buffer (Genosys Biotechnologies, Cambridge, England), 80 ml Tris-buffered saline (TBS), 0.05% tween 20, and 5 g sucrose. Probing for fibrinogen-binding was performed as described below.
Membranes that had been blocked overnight were incubated for 1 h with 2 μg/ml of human fibrinogen. For Western and colony blot experiments, fibrinogen and antibodies were diluted in PBS while for spot membrane analysis they were diluted in MBS. Following three washes with PBS, the membrane was incubated with anti-fibrinogen antibodies (1:1000 in PBS or MBS) for 1 h. This incubation was followed by three washes with PBS, containing 0.05% tween 20 (PBST) and two washes with PBS. Subsequently, the membrane was incubated for 1 h with peroxidase-labelled anti-rabbit IgG (1:1000 in PBS or MBS). After three washes with PBST and two washes with PBS, bound fibrinogen was detected by chemiluminescence using the ECL-kit (Amersham/Pharmacia). In control experiments, no cross-reactivity of the used antibodies with the immobilized proteins and peptides was detected.

GBS 6313 = assay: Competitive inhibition of 125I-labelled fibrinogen binding to GBS; set-up: species or system Streptococcus agalactiae; conditions: for inhibition of fibrinogen binding to GBS: 160 μM synthetic peptide, radiolabelled fibrinogen
Procedure: FbsA-9 differs from FbsA-19 in that it contains only 9 repeats in its repeat domain. The binding assay was performed with ^125I-labelled fibrinogen in the presence of different concentrations of each fusion protein. Each experiment was performed at least in triplicate.
Each experiment was performed at least in triplicate.
Purified human fibrinogen was radiolabelled with ^125I, using the chloramin T method (Hunter and Greenwood, 1962). Binding of labelled fibrinogen to GBS was performed essentially as described by Chhatwal et al. (Chhatwal, Muller, and Blobel, 1983). Briefly, overnight cultures of GBS were pelleted by centrifugation, washed twice with phosphate-buffered saline supplemented with 0.02% Tween 20 (PBST) and adjusted photometrically to a transmission of 10% at 600 nm. A total of 0.2 ml of the bacterial suspension was added to 20 μl of ^125I-labelled fibrinogen containing 23 ng of fibrinogen. After incubation for 1 h at room temperature, the streptococci were sedimented by centrifugation and washed with 1 ml of PBST. The radioactivity of the pellet was finally measured in a gamma counter (Packard Instruments). The amount of bacterial-bound fibrinogen was calculated as the percentage of total radiolabelled fibrinogen added to the bacteria. In inhibition experiments, the binding of 23 ng of radiolabelled fibrinogen to 0.2 ml of GBS (T=10%) was determined in the presence of various amounts of FbsA fusion proteins, Bsp fusion protein or synthetic peptides. Each experiment was repeated at least three times in triplicate.

A549 cells = assay: Epithelial cell adherence and internalization assay of GBS 6313 in presence of proteins; format: cell-based, human; conditions: fibrinogen 0.1 μg/ml to 1.0 μg/ml; fibronectin 10 μg/ml; data not shown
Procedure: The adherence of GBS 6313 to A549 cells (A) and its internalization into these cells (B) was arbitrarily set to 100% and the results obtained in the presence of the different fusion proteins was related to these values. Each experiment was performed at least three times in triplicate.
Adherence of GBS to epithelial cells and internalization into epithelial cells was assayed essentially as described previously (Caparon et al., 1991; Rubens et al. 1992). Briefly, A549 cells were transferred to 24-well tissue culture plates at approximately 4×10^5 cells per well and cultivated overnight in RPMI (Gibco BRL) tissue culture medium, supplemented with 10% of fetal calf serum. After replacement of the medium with 1 ml of fresh medium, the cells were infected with 5×10^6 streptococci per well and incubated at 37° C. for 2 h. The non-adherent bacteria were removed by washing three times with PBS. In adherence assays, the epithelial cells were subsequently detached from the well by the addition of trypsin/EDTA and lysed by adding 300 μl of distilled water. Adherent bacteria were quantitated by plating serial dilutions of the lysate onto THY agar plates. For internalization assays the epithelial cells were incubated after 2 h of infection for another 2 h in tissue culture medium supplemented with penicilling G (10 U) and streptomycin (0.01 mg) to kill extracellular bacteria. After three washes with PBS, the epithelial cells were detached by the addition of trypsin/EDTA and lysed in 300 μl of distilled water. The amount of intracellular bacteria was quantified by plating serial dilutions of the lysate onto THY agar plates. Each experiment was repeated at least three times in triplicate. […]
Adherence of S. agalactiae to A549 and HEL299 cells and internalization into these cells was assayed essentially as described in Example 1 for A549 cells. In some experiments, A549 cells were preincubated with different amounts of FbsA protein or FbsA-derived peptides in RPMI medium for 30 min with three subsequent washes with PBS.

human fibrinogen [2] = target: T1, human fibrinogen; assay: Western blot of fusion proteins for fibrinogen binding; conditions: His-tagged fusion proteins separated by SDS-PAGE, blotted, probed with human fibrinogen
From the text: The fibrinogen binding activity of the three proteins encoded by different constructs are indicated below the schematic FbsA drawing.
The fusion proteins were size-separated by SDS-PAGE, transferred onto a nitrocellulose membrane and tested for fibrinogen binding by Western blotting. Bound fibrinogen was detected with rabbit anti-fibrinogen antibodies, followed by peroxidase-labelled goat anti-rabbit antibodies, and visualized by chemiluminescence. PabC and Gbs0851: full-length fusion proteins; PabC-N: N-terminal 388 amino acids of PabC; PabC-C: C-terminal 222 amino acids of PabC. (C) Identification of the FbsA and PabC-binding sites within human fibrinogen by Western blot analysis. […] Bound fusion proteins were detected with mouse anti-HisTag antibodies, followed by peroxidase-conjugated goat anti-mouse IgG fab fragments and visualized by chemiluminescence. […]
Membranes that had been blocked overnight were incubated for 1 h with 2 μg/ml of human fibrinogen. […] After three washes with PBST and two washes with PBS, bound fibrinogen was detected by chemiluminescence using the ECL-kit (Amersham/Pharmacia). In control experiments, no cross-reactivity of the used antibodies with the immobilized proteins and peptides was detected.

T1 sequence (P02675 31-491): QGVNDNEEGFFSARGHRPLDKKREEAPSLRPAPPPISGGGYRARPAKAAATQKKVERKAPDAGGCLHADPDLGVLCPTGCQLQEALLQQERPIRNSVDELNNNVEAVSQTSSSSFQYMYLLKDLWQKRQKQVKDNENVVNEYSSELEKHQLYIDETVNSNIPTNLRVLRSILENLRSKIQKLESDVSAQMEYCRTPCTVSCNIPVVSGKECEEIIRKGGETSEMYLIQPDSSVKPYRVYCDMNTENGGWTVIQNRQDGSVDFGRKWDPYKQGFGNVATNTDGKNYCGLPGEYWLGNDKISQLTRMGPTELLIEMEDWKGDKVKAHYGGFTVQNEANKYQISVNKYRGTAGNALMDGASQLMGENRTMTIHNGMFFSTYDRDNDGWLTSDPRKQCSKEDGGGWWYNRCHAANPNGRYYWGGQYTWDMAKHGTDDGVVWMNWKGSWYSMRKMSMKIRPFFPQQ
T1 sequence (P02679 27-433): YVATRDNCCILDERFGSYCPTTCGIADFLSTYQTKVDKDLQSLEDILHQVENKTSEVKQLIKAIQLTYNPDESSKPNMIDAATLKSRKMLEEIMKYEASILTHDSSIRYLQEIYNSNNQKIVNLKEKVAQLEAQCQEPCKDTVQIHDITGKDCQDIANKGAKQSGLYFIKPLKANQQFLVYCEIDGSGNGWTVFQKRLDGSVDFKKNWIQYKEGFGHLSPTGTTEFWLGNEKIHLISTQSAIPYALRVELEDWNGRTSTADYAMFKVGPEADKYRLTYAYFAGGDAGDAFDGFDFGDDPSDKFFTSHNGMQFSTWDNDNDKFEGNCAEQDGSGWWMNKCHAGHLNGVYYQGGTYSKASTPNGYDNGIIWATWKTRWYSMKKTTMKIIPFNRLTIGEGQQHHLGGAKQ
T1 sequence (P02671 20-629): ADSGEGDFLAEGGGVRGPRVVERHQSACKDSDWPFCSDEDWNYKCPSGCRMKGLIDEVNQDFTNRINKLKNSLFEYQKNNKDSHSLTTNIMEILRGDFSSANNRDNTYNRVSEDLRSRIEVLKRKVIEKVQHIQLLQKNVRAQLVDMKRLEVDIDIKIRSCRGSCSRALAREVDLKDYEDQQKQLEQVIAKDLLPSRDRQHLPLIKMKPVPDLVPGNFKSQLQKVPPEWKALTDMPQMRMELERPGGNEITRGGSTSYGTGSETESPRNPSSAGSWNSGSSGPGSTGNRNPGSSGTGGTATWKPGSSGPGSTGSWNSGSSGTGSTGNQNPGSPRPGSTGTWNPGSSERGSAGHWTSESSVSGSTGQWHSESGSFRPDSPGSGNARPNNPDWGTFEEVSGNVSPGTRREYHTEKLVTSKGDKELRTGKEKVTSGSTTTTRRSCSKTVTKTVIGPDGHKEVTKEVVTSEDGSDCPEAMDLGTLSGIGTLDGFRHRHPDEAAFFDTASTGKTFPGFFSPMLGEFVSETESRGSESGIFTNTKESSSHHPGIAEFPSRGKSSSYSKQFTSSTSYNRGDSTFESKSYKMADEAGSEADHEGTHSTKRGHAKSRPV

With “GNVLERRQRDAENRSQ (listed as Streptococcus agalactiae) [pep_FbsA]” the “fibrinogen binding of synthetic 16-mer peptides on spot membrane” value (shortened to “fibrinogen binding … on spot membrane”) (human fibrinogen [1]) was “strong interaction” and the “inhibition of fibrinogen binding to GBS” value (GBS 6313) was 80%.

With “GNVLEARQRDAENRSQ [pep_R6A, synthetic FbsA repeat unit peptide carrying an R6A substitution]” the “fibrinogen binding … on spot membrane” value (human fibrinogen [1]) was “significantly reduced binding to fibrinogen”, the “fibrinogen binding … on spot membrane” value (human fibrinogen [1]; listed as R6A) was “retained little binding activity” and the “inhibition of fibrinogen binding to GBS” value (GBS 6313) was 20%.

fibronectin [reference compound] was tested, and the “bacterial adherence to A549 cells after pre-incubation of S. agalactiae 6313 with protein” value (A549 cells) was “did not exert an inhibitory effect” and the “bacterial invasion of A549 cells after pre-incubation of S. agalactiae 6313 with protein” value (A549 cells) was “did not exert an inhibitory effect”.

With “R^14K: FbsA repeat peptide with R14K substitution (GNVLERRQRDAENKSQ; listed as Streptococcus agalactiae)” the “fibrinogen binding … on spot membrane” value (human fibrinogen [1]) was “retained fibrinogen binding”.

With “GLSQNRDVRENQRARE (listed as Streptococcus agalactiae) [randomised peptide, reference compound]” the “fibrinogen binding … on spot membrane” value (human fibrinogen [1]) was “no binding of fibrinogen”.

B1: FbsA-9: derivative of FbsA-19 fusion protein with only 9 repeats in its repeat domain (protein)
chain: MDSVGNQSQGNVLERRQRDAENRSQGNVLERRQRDVENKSQGNVLERRQRDAENKSQGNVLERRQRDAENRSQGNVLERRQRDAENRSQGNVLERRQRDAENRSQGNVLERRQRDAENRSQGNVLERRQRDAENRSQGNVLERRQRDAENKSQVGQLIGKNPLLSKSIISRENNHSSQGDSNKQSFSKKVSQVTNVANRPMLTNNSRTISVINKLPKTGDDQNV
modifications: left off: small tags and cut ends
notes: derivative of FbsA-19 fusion protein with only 9 repeats in its repeat domain
In the case of B1, the “inhibition of binding of 125I-labelled fibrinogen to GBS 6313” value (GBS 6313; increasing concentrations of purified fusion protein) is reported as “significantly higher concentration of FbsA-9 had to be used to obtain a comparable inhibition”.

B2: FbsA-N: fusion protein with the 19 N-terminal repeats of FbsA-19, truncated at its C-terminus (protein)
chain: MDSVGNQSQGNVLERRQRDAENRSQGNVLERRQRDVENKSQGNVLERRQRDAENKSQGNVLERRQRDAENRSQGNVLERRQRDAENRSQGNVLERRQRDAENRSQGNVLERRQRDAENRSQGNVLERRQRDAENRSQGNVLERRQRDVENKSQGNVLERRQRDAENKSQGNVLERRQRDAENRSQGNVLERRQRDAENRSQGNVLERRQRDAENRSQGNVLERRQRDAENRSQGNVLERRQRDAENRSQGNVLERRQRDAENRSQGNVLERRQRDAENRSQGNVLERRQRDAENRSQGNVLERRQRDAENKSQVGQLIG
modifications: left off: small tags and cut ends
notes: fusion protein with the 19 N-terminal repeats of FbsA-19, truncated at its C-terminus
For B2, the “fibrinogen binding in Western blot” value (human fibrinogen [2]) was “fibrinogen binding was observed”.
